Measured values as given in article PMC6333426.

Molecular target: Tsx nucleoside transporter of E. coli, on target cells (E. coli) (UniProt P0A927)
Experiment: flow cytometry on cells

Sequence of UniProt P0A927 (P0A927 23-294): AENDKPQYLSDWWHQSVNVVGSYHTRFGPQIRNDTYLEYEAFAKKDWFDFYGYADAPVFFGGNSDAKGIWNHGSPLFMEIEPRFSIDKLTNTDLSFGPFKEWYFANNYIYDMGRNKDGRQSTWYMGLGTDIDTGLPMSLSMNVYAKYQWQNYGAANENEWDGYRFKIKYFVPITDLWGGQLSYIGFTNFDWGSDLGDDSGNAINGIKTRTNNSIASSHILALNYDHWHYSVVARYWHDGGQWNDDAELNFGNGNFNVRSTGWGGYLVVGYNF

CdiA^STECO31 (CdiA from Escherichia coli STEC_O31), wild type, A0A1S4NYE3 33-3253
percent of target cells bound: 80%
